Test results reported in publication PMC8175417, “Streptococcus pneumoniae pneumolysin and neuraminidase A convert high-density lipoproteins into pro-atherogenic particles” (iScience, 2021).

Molecular target: the molecule itself
Assay: non-reducing SDS-PAGE with Western blot; hirudin blood incubated with 200 nM PLY for 1 h at 37 °C; total HDL isolated from the plasma by flotation ultracentrifugation; samples and 50 ng PLY control run under non-reducing conditions; detected with anti-penta-His antibody

B1: Recombinant Streptococcus pneumoniae serotype 2 Pneumolysin (PLY) (natural protein, UniProt Q04IN8 1-471, looked up)
chain: MANKAVNDFILAMNYDKKKLLTHQGESIENRFIKEGNQLPDEFVVIERKKRSLSTNTSDISVTATNDSRLYPGALLVVDETLLENNPTLLAVDRAPMTYSIDLPGLASSDSFLQVEDPSNSSVRGAVNDLLAKWHQDYGQVNNVPARMQYEKITAHSMEQLKVKFGSDFEKTGNSLDIDFNSVHSGEKQIQIVNFKQIYYTVSVDAVKNPGDVFQDTVTVEDLKQRGISAERPLVYISSVAYGRQVYLKLETTSKSDEVEAAFEALIKGVKVAPQTEWKQILDNTEVKAVILGGDPSSGARVVTGKVDMVEDLIQEGSRFTADHPGLPISYTTSFLRDNVVATFQNSTDYVETKVTAYRNGDLLLDHSGAYVAQYYITWDELSYDHQGKEVLTPKAWDRNGQDLTAHFTTSIPLKGNVRNLSVKIRECTGLAWEWWRTVYEKTDLPLVRKRTISIWGTTLYPQVEDKVEND
notes: Pneumolysin (PLY), Streptococcus pneumoniae serotype 2; recombinant protein bought from Cusabio; Detected with a penta-His antibody
B1: binds.
